From PMC10786891, “Massively parallel profiling of RNA-targeting CRISPR-Cas13d”

T1: EsCas13d, nuclease-dead (Eubacterium siraeum, UniProt B0MS50, R295A;H300A;R849A;H854A)
T1 sequence: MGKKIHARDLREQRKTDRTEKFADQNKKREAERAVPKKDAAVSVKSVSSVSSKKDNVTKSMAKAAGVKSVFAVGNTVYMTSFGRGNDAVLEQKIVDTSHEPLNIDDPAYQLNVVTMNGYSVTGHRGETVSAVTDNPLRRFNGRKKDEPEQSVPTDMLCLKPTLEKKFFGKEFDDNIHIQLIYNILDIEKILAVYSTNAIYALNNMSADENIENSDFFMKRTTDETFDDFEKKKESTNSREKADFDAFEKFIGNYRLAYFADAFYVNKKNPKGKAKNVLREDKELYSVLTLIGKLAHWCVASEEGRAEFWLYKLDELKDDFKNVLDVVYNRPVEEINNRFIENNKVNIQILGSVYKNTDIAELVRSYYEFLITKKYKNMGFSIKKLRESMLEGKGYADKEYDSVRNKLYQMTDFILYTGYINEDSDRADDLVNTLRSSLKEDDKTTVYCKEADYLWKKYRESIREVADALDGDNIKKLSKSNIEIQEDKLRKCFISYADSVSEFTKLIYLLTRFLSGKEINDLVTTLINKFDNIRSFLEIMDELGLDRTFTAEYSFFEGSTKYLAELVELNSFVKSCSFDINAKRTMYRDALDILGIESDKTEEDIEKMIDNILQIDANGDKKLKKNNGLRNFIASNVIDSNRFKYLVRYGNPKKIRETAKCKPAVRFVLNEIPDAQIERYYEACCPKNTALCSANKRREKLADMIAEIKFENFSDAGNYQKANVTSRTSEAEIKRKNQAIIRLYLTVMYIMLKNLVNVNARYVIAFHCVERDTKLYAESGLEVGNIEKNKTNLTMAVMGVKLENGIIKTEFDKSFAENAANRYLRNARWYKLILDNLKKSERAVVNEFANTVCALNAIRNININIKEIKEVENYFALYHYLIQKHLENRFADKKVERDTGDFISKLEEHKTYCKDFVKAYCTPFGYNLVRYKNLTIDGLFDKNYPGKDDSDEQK

B1: target 1 insC 3' of 12,insA 3' of 12 (mixed)
RNA 1: CACCCGUGCAAAAAUGCAGGGGUCUAAAACUGAGCGGAUAACCUCUCUAUGG
RNA 2: GGGAAUGGAUCCACAUCUACGAAUUCGUACCAUAGAGAGGCAUUAUCCGCUCACCGAGAUCGGAAGAGCACACGU
B2: target 1 complement block 4-7 (mixed)
RNA 1: CACCCGUGCAAAAAUGCAGGGGUCUAAAACUGAGCGGAUAACCUCUCUAUGG
RNA 2: GGGAAUGGAUCCACAUCUACGAAUUCGUACCAUAGAGAGGUUAUGGCGUCACCGAGAUCGGAAGAGCACACGU
B3: target 1 insU 3' of 7,insG 3' of 6 (mixed)
RNA 1: CACCCGUGCAAAAAUGCAGGGGUCUAAAACUGAGCGGAUAACCUCUCUAUGG
RNA 2: GGGAAUGGAUCCACAUCUACGAAUUCGUACCAUAGAGAGGUUAUCUCGGCUCACCGAGAUCGGAAGAGCACACGU
B4: target 1 A1C,G5C (mixed)
RNA 1: CACCCGUGCAAAAAUGCAGGGGUCUAAAACUGAGCGGAUAACCUCUCUAUGG
RNA 2: GGGAAUGGAUCCACAUCUACGAAUUCGUACCAUAGAGAGGUUAUCCCCUCCCCGAGAUCGGAAGAGCACACGU
B5: target 1 insA 3' of 22,insC 3' of 8 (mixed)
RNA 1: CACCCGUGCAAAAAUGCAGGGGUCUAAAACUGAGCGGAUAACCUCUCUAUGG
RNA 2: GGGAAUGGAUCCACAUCUACGAAUUCGUACACAUAGAGAGGUUAUCCCGCUCACCGAGAUCGGAAGAGCACACGU
B6: target 1 U3A,G17C (mixed)
RNA 1: CACCCGUGCAAAAAUGCAGGGGUCUAAAACUGAGCGGAUAACCUCUCUAUGG
RNA 2: GGGAAUGGAUCCACAUCUACGAAUUCGUACCAUACAGAGGUUAUCCGCACACCGAGAUCGGAAGAGCACACGU
B7: target 1 insG 3' of 16,insA 3' of 5 (mixed)
RNA 1: CACCCGUGCAAAAAUGCAGGGGUCUAAAACUGAGCGGAUAACCUCUCUAUGG
RNA 2: GGGAAUGGAUCCACAUCUACGAAUUCGUACCAUAGAGGAGGUUAUCCGACUCACCGAGAUCGGAAGAGCACACGU
B8: target 1 U19A,C21A (mixed)
RNA 1: CACCCGUGCAAAAAUGCAGGGGUCUAAAACUGAGCGGAUAACCUCUCUAUGG
RNA 2: GGGAAUGGAUCCACAUCUACGAAUUCGUACAAAAGAGAGGUUAUCCGCUCACCGAGAUCGGAAGAGCACACGU
B9: target 1 A1U,A14C (mixed)
RNA 1: CACCCGUGCAAAAAUGCAGGGGUCUAAAACUGAGCGGAUAACCUCUCUAUGG
RNA 2: GGGAAUGGAUCCACAUCUACGAAUUCGUACCAUAGAGCGGUUAUCCGCUCUCCGAGAUCGGAAGAGCACACGU
B10: target 1 insA 3' of 21,insU 3' of 2 (mixed)
RNA 1: CACCCGUGCAAAAAUGCAGGGGUCUAAAACUGAGCGGAUAACCUCUCUAUGG
RNA 2: GGGAAUGGAUCCACAUCUACGAAUUCGUACCAAUAGAGAGGUUAUCCGCUCUACCGAGAUCGGAAGAGCACACGU
B11: target 1 complement block 3-7 (mixed)
RNA 1: CACCCGUGCAAAAAUGCAGGGGUCUAAAACUGAGCGGAUAACCUCUCUAUGG
RNA 2: GGGAAUGGAUCCACAUCUACGAAUUCGUACCAUAGAGAGGUUAUGGCGACACCGAGAUCGGAAGAGCACACGU
B12: target 1 insC 3' of 3,insG 3' of 2 (mixed)
RNA 1: CACCCGUGCAAAAAUGCAGGGGUCUAAAACUGAGCGGAUAACCUCUCUAUGG
RNA 2: GGGAAUGGAUCCACAUCUACGAAUUCGUACCAUAGAGAGGUUAUCCGCUCCGACCGAGAUCGGAAGAGCACACGU
B13: target 1 U19C,C21A (mixed)
RNA 1: CACCCGUGCAAAAAUGCAGGGGUCUAAAACUGAGCGGAUAACCUCUCUAUGG
RNA 2: GGGAAUGGAUCCACAUCUACGAAUUCGUACAACAGAGAGGUUAUCCGCUCACCGAGAUCGGAAGAGCACACGU
B14: target 1 C2U,C7U (mixed)
RNA 1: CACCCGUGCAAAAAUGCAGGGGUCUAAAACUGAGCGGAUAACCUCUCUAUGG
RNA 2: GGGAAUGGAUCCACAUCUACGAAUUCGUACCAUAGAGAGGUUAUUCGCUUACCGAGAUCGGAAGAGCACACGU
B15: target 1 complement block 1-6 (mixed)
RNA 1: CACCCGUGCAAAAAUGCAGGGGUCUAAAACUGAGCGGAUAACCUCUCUAUGG
RNA 2: GGGAAUGGAUCCACAUCUACGAAUUCGUACCAUAGAGAGGUUAUCGCGAGUCCGAGAUCGGAAGAGCACACGU
B16: target 1 A1U,G5C (mixed)
RNA 1: CACCCGUGCAAAAAUGCAGGGGUCUAAAACUGAGCGGAUAACCUCUCUAUGG
RNA 2: GGGAAUGGAUCCACAUCUACGAAUUCGUACCAUAGAGAGGUUAUCCCCUCUCCGAGAUCGGAAGAGCACACGU
B17: target 1 insU 3' of 21,insU 3' of 6 (mixed)
RNA 1: CACCCGUGCAAAAAUGCAGGGGUCUAAAACUGAGCGGAUAACCUCUCUAUGG
RNA 2: GGGAAUGGAUCCACAUCUACGAAUUCGUACCUAUAGAGAGGUUAUCCUGCUCACCGAGAUCGGAAGAGCACACGU
B18: target 1 A1G,G5C (mixed)
RNA 1: CACCCGUGCAAAAAUGCAGGGGUCUAAAACUGAGCGGAUAACCUCUCUAUGG
RNA 2: GGGAAUGGAUCCACAUCUACGAAUUCGUACCAUAGAGAGGUUAUCCCCUCGCCGAGAUCGGAAGAGCACACGU
B19: target 1 C7A,A14C (mixed)
RNA 1: CACCCGUGCAAAAAUGCAGGGGUCUAAAACUGAGCGGAUAACCUCUCUAUGG
RNA 2: GGGAAUGGAUCCACAUCUACGAAUUCGUACCAUAGAGCGGUUAUACGCUCACCGAGAUCGGAAGAGCACACGU
B20: target 1 C7U,A9G (mixed)
RNA 1: CACCCGUGCAAAAAUGCAGGGGUCUAAAACUGAGCGGAUAACCUCUCUAUGG
RNA 2: GGGAAUGGAUCCACAUCUACGAAUUCGUACCAUAGAGAGGUUGUUCGCUCACCGAGAUCGGAAGAGCACACGU
B21: target 1 G12U,A20C (mixed)
RNA 1: CACCCGUGCAAAAAUGCAGGGGUCUAAAACUGAGCGGAUAACCUCUCUAUGG
RNA 2: GGGAAUGGAUCCACAUCUACGAAUUCGUACCCUAGAGAGUUUAUCCGCUCACCGAGAUCGGAAGAGCACACGU
B22: target 1 insG 3' of 22,insG 3' of 8 (mixed)
RNA 1: CACCCGUGCAAAAAUGCAGGGGUCUAAAACUGAGCGGAUAACCUCUCUAUGG
RNA 2: GGGAAUGGAUCCACAUCUACGAAUUCGUACGCAUAGAGAGGUUAUGCCGCUCACCGAGAUCGGAAGAGCACACGU
B23: target 1 G5C (mixed)
RNA 1: CACCCGUGCAAAAAUGCAGGGGUCUAAAACUGAGCGGAUAACCUCUCUAUGG
RNA 2: GGGAAUGGAUCCACAUCUACGAAUUCGUACCAUAGAGAGGUUAUCCCCUCACCGAGAUCGGAAGAGCACACGU
B24: target 1 G12U,G13A (mixed)
RNA 1: CACCCGUGCAAAAAUGCAGGGGUCUAAAACUGAGCGGAUAACCUCUCUAUGG
RNA 2: GGGAAUGGAUCCACAUCUACGAAUUCGUACCAUAGAGAAUUUAUCCGCUCACCGAGAUCGGAAGAGCACACGU
B25: target 1 insC 3' of 17,insA 3' of 6 (mixed)
RNA 1: CACCCGUGCAAAAAUGCAGGGGUCUAAAACUGAGCGGAUAACCUCUCUAUGG
RNA 2: GGGAAUGGAUCCACAUCUACGAAUUCGUACCAUAGCAGAGGUUAUCCAGCUCACCGAGAUCGGAAGAGCACACGU
B26: target 1 C7A,C21A (mixed)
RNA 1: CACCCGUGCAAAAAUGCAGGGGUCUAAAACUGAGCGGAUAACCUCUCUAUGG
RNA 2: GGGAAUGGAUCCACAUCUACGAAUUCGUACAAUAGAGAGGUUAUACGCUCACCGAGAUCGGAAGAGCACACGU
B27: target 1 U3A,C21A (mixed)
RNA 1: CACCCGUGCAAAAAUGCAGGGGUCUAAAACUGAGCGGAUAACCUCUCUAUGG
RNA 2: GGGAAUGGAUCCACAUCUACGAAUUCGUACAAUAGAGAGGUUAUCCGCACACCGAGAUCGGAAGAGCACACGU
B28: target 1 insA 3' of 21,insU 3' of 12 (mixed)
RNA 1: CACCCGUGCAAAAAUGCAGGGGUCUAAAACUGAGCGGAUAACCUCUCUAUGG
RNA 2: GGGAAUGGAUCCACAUCUACGAAUUCGUACCAAUAGAGAGGUUUAUCCGCUCACCGAGAUCGGAAGAGCACACGU

Target: T1, EsCas13d, nuclease-dead
Assay: crRNA (strand 1, pre-loaded); Mg2+; 40 mM Tris-HCl pH 7.5, 150 mM NaCl, 6 mM MgCl2, 1 mM DTT, 0.1% Tween-20, 0.2 mg/ml BSA; 25 C; 10 min per concentration, then washed
Details: tags: His6-TwinStrep-SUMO cleaved; N-terminal SNAP kept (SNAP-Surface 488); label: 3' end held by stalled T7 RNA polymerase

| Binder | Kd [nM] |
| --- | --- |
| B1 | 14.7 ± 1.5 |
| B2 | 12.6 ± 0.8 |
| B3 | 16.7 ± 1.3 |
| B4 | 9 ± 0.7 |
| B5 | 22.3 ± 2 |
| B6 | 44 ± 4 |
| B7 | 23.5 ± 1.5 |
| B8 | 46 ± 5 |
| B9 | 45 ± 6 |
| B10 | 17.9 ± 1 |
| B11 | 12.9 ± 0.8 |
| B12 | 11.6 ± 0.7 |
| B13 | 37 ± 5 |
| B14 | 6.5 ± 0.27 |
| B15 | 6.14 ± 0.25 |
| B16 | 8.9 ± 0.5 |
| B17 | 31.4 ± 1.6 |
| B18 | 10 ± 0.5 |
| B19 | 34 ± 4 |
| B20 | 15.7 ± 1.1 |
| B21 | 74 ± 32 |
| B22 | 68 ± 7 |
| B23 | 9.6 ± 0.4 |
| B24 | 3.99 ± 0.22 |
| B25 | 44 ± 5 |
| B26 | 36 ± 4 |
| B27 | ~90 |
| B28 | 16.4 ± 0.8 |
